Assay in all cases: purified protein
Substrate in data set [1]: Nc1ccn([C@@H]2O[C@H](COP(=O)(O)OP(=O)(O)OP(=O)(O)O)[C@@H](O)[C@H]2O)c(=O)n1
As to conditions: MEP co-substrate, 1 mM MgCl2, 0.1 M Tris-HCl pH 8.0, 1 mM DTT, 30 °C, CTP varied 10-500 μM, paper inconsistent: text gives 291.5 for CTP (kcat 2307.7), Table 2 prints it under MEP (kcat 2307.2).

Substrate in data set [2]: C[C@](O)(CO)[C@H](O)COP(=O)(O)O
It is filed as biochemical, Bacillus subtilis. As to conditions: CTP co-substrate, 1 mM MgCl2, 0.1 M Tris-HCl pH 8.0, 1 mM DTT, 30 °C, MEP varied 10-400 μM, paper inconsistent: text gives 132.8 for MEP, Table 2 prints it under CTP.

Substrate in data set [3]: Nc1ccn([C@@H]2O[C@H](COP(=O)(O)OP(=O)(O)OP(=O)(O)O)[C@@H](O)[C@H]2O)c(=O)n1
Format: biochemical, Bacillus subtilis. As to conditions: MEP co-substrate, 1 mM MgCl2, 0.1 M Tris-HCl pH 8.0, 1 mM DTT, 30 °C, CTP varied 10-500 μM, paper inconsistent: text gives 124.8 for CTP, Table 2 prints it under MEP.

From paper PMC5099578, “A structural and functional study on the 2-C-methyl-D-erythritol-4-phosphate cytidyltransferase (IspD) from Bacillus subtilis” (Scientific Reports, 2016) come the findings set out here.

One may read the Km as the concentration of substrate that gives half-maximal velocity. One may read the kcat as the number of substrate molecules converted per active site and unit of time at saturation. Broadly, the kcat/Km is the second-order rate constant that governs catalysis at low substrate concentration.

B1: EcIspD (Escherichia coli K-12) (protein)
chain: ATTHLDVCAVVPAAGFGRRMQTECPKQYLSIGNQTILEHSVHALLAHPRVKRVVIAISPGDSRFAQLPLANHPQITVVDGGDERADSVLAGLKAAGDAQWVLVHDAARPCLHQDDLARLLALSETSRTGGILAAPVRDTMKRAEPGKNAIAHTVDRNGLWHALTPQFFPRELLHDCLTRALNEGATITDEASALEYCGFHPQLVEGRADNIKVTRPEDLALAEFYLTRTIHQENT
notes: pET22b, C-terminal His6 tag removed with thrombin; expressed in E. coli BL21 (DE3)
For B1, in “purified protein [1]”, the Km was determined as 291.5 ± 44 µM, the kcat is 38.5 s⁻¹ and the catalytic efficiency (kcat/Km) was found to be 132000 M⁻¹ s⁻¹.

B2: BsIspD (Bacillus subtilis subsp. subtilis str. 168) (protein)
chain: MSYDVVIPAAGQGKRMKAGRNKLFIELKGDPVIIHTLRVFDSHRQCDKIILVINEQEREHFQQLLSDYPFQTSIELVAGGDERQHSVYKGLKAVKQEKIVLVHDGARPFIKHEQIDELIAEAEQTGAAILAVPVKDTIKRVQDLQVSETIERSSLWAVQTPQAFRLSLLMKAHAEAERKGFLGTDDASLVEQMEGGSVRVVEGSYTNIKLTTPDDLTSAEAIMESESGNKHV
notes: full length (699 bp gene, 232 residues built); pGEX-6P-1, expressed in E. coli, GST tag cut with PreScission protease; homodimer
As to B2, in the data set “purified protein [2]”, the Michaelis constant (Km) is 132.8 ± 29 µM, the kcat turned out to be 71.2 s⁻¹ and the kcat/Km amounted to 536000 M⁻¹ s⁻¹. Besides, in “purified protein [3]”, the Km was 124.8 ± 19 µM, the kcat is 36.3 s⁻¹ and the catalytic efficiency (kcat/Km) came out at 291000 M⁻¹ s⁻¹.
